“Also recorded” adds a separate entry of the source. Each block holds one compound with its values, some of them ahead of it.
How the values were obtained:
CCX CKR [1] = molecular target: T1, CCX CKR (Homo sapiens, UniProt Q9NPB9); test: Small molecule screen: inhibition of 125I-ELC binding to HEK293 cells expressing CCX CKR; details: for Effect on binding between ELC and CCX CKR: 125I-ELC ~25-100 pM, compounds 1-5 μg/mL, ~3 hours at 4° C., HEK293 Flag-CCX CKR cells; for Type of modulator of CCX CKR function: Table 1, class given beside the label
T1 construct: Full length CCX CKR expression constructs were made in pIRESpuro expression vector; expressed in transfected cells
T1 sequence (Q9NPB9 1-350): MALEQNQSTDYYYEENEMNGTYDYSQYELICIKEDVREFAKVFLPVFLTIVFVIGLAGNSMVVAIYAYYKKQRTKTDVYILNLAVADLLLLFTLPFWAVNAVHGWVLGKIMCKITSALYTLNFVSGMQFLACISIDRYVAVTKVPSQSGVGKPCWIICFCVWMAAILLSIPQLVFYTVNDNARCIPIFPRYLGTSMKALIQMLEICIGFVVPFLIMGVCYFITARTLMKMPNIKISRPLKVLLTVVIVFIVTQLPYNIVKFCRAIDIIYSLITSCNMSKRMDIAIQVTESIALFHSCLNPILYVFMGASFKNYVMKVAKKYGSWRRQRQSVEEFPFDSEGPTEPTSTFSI
Method: Source plates of chemical libraries were obtained from commercial vendors and contained individual compounds at 5 mg/mL in DMSO, or in some instances, at 1 mg/mL. From these, multiple compound plates containing 10 compounds in each well were made, and these were diluted in 20% DMSO to a concentration of 50 μg/mL (10 μg/mL for those beginning at 1 mg/mL). An aliquot of 20 μL of each mixture was put into the test plates, which were stored frozen until use.
HEK293 cells stably expressing the M1 flag epitope-tagged CCX CKR (described in Example 3, supra) were cultured in DMEM-10% FBS, and harvested when the concentration was between 0.5-1.0×10^6 cells/mL. The cells were centrifuged and resuspended in assay buffer (20 mM HEPES, 80 mM NaCl, 1 mM CaCl2, 5 mM MgCl2, and with 0.2% bovine serum albumin, pH 7.4) to a concentration of 5.6×10^6 cells/mL.
Using a Multi-Probe automated system, 0.09 mL of cells was added to each well of the assay test plates containing the compounds, followed by 0.09 mL of ^125I-MIPβ3/ELC (from Amersham Pharmacia Biotech) diluted in assay buffer (final concentration ˜25-100 pM, with ˜50,000 cpm per well). The final concentration of the compounds was 1-5 μg/mL each. The plates were sealed and incubated for approximately 3 hours at 4° C. on a shaker platform. The assay plates were harvested using Packard GP/B filter plates, pre-soaked in PEI solution, on the vacuum harvest apparatus. Scintillation fluid (50 μL) was added to each of the wells, the plates were sealed and counted in a Top Count scintillation counter. Control wells contained either diluent only (for total counts) or excess ELC (1 μg/mL, for non-specific binding) and were used to calculate the percent of total inhibition of ELC binding for each set of compounds.

CCX CKR [2] = molecular target: T1, CCX CKR; test: Ligand binding fingerprint: displacement of 125I-ELC from CCX CKR stable transfectants by cold chemokines; details: cold competitor 200 nM; human and murine ELC, SLC, TECK; comparable with 125I-TECK
Description: In one embodiment, binding is detected as described by Dairaghi et al., 1997, J. Biol. Chem. 272:28206-209 (incorporated by reference in its entirety for all purposes) substituting CCX CKR transfectants for the CCR3 transfectants). In one embodiment, binding is detected using the filter based technique described by Dairaghi et al., 1999, J. Biol. Chem. 274:2156 (incorporated by reference in its entirety for all purposes), e.g., as shown in FIG. 4. Briefly, this technology employs expanded, efficiency-maximized radioligand binding utilizing filtration protocols. […] Filters are washed twice (25 mM HEPES, 500 mM NaCl, 1 mM CaCl25 mM MgCl2, adjusted to pH 7.1) and scintillant (e.g., MicroScint 20; 50 μl) is added to dried filters and counted (e.g., using a Packard Topcount scintillation counter). The competition dose-response curves is analyzed by standard methods to determine IC50 values (e.g., using GraphPad Prism software (San Diego, Calif.)). […]
In order to rapidly and thoroughly define a given chemokine receptor's ligand binding fingerprint, we have established an approach to comprehensively profile chemokine receptors using a large array of purified chemokines and chemokine variants. […] Employing radioligand binding of ^125I-labeled-ELC or ^125I-TECK to CCX CKR stable transfectants, chemokine specificity for the new receptor was determined. […]

CCX CKR [3] = molecular target: T1, CCX CKR; test: Radioligand binding competition with Scatchard transformation (binding constants); details: for Affinity class of CCX CKR ligands (summary of Examples 4-6): summary statement
Description: In one embodiment, binding is detected as described by Dairaghi et al., 1997, J. Biol. Chem. 272:28206-209 (incorporated by reference in its entirety for all purposes) substituting CCX CKR transfectants for the CCR3 transfectants). In one embodiment, binding is detected using the filter based technique described by Dairaghi et al., 1999, J. Biol. Chem. 274:2156 (incorporated by reference in its entirety for all purposes), e.g., as shown in FIG. 4. Briefly, this technology employs expanded, efficiency-maximized radioligand binding utilizing filtration protocols. In these assays, 1×10^5 CCXCKR-293 HEK cells are incubated with […] (MlP3beta) (final concentration of ˜0.05 nM) in the presence of unlabeled chemokine for 3 h at 4° C. in 25 mM HEPES, 140 mM NaCl, 1 mM CaCl2, 5 mM MgCl2, and 0.2% bovine serum albumin, adjusted to pH 7.1. Reactions were aspirated onto PEI-treated GF/B glass filters using a cell harvester (Packard). Filters are washed twice (25 mM HEPES, 500 mM NaCl, 1 mM CaCl25 mM MgCl2, adjusted to pH 7.1) and scintillant (e.g., MicroScint 20; 50 μl) is added to dried filters and counted (e.g., using a Packard Topcount scintillation counter). The competition dose-response curves is analyzed by standard methods to determine IC50 values (e.g., using GraphPad Prism software (San Diego, Calif.)). Additionally, a Scatchard transformation can be used to estimate the receptor sites per cell (e.g., using WaveMetrics Igor software (Lake Oswego, Oreg.)).
Binding analysis was carried out using efficiency-maximized radioligand binding utilizing filtration protocols designated “Displace Max” (Dairaghi et al., 1999, J Biol. Chem. 274:21569). […]
The binding interactions identified in the primary screen were examined quantitatively by extensive radioligand binding competition to CCX CKR stable transfectants and Scatchard transformation of the displacement data (FIG. 4B). […]

CCX CKR [4] = molecular target: T1, CCX CKR; test: Adhesion of HEK293-CCX CKR cells to immobilized ELC-stalkokine and competition by soluble chemokines; assay type: cell-based; details: 5-10 ug/ml soluble recombinant chemokine as competitor
Description: “Stalkokine” technology was used to :identify the chemokines bound by the CCX CKR. Briefly, immobilized native chemokines alone are incapable of capturing cells bearing cognate receptors (Imai et al., 1997, Cell 91:521). We have developed non-native chemokine structures, stalkokines, comprising chemokine moieties engineered as N-terminal attachments to extended modified mucins (Bazan et al., 1997, Nature 385:640). In one embodiment, stalkokines, harvested in the supernatants of HEK293 cells after transient transfection, are anchored to solid substrates via antibodies against carrier domains (e.g. poly-His epitopes) engineered to the carboxyl terminus, leaving the chemokine domain free to interact with candidate orphan receptors.
To determine ligand binding to CCX CKR, HEK293-CCX CKR cells were used to interrogate chemokine ‘stalkokines’ (SK), i.e., molecules in which discrete chemokine domains were engineered to be tethered to the end of an extended stalk structure. […] In all cases, nonadherent cells were removed by washing in PBS; remaining adherent cells were fixed with 1% glutaraldehyde, photoimaged and counted. […]

CCX CKR [5] = molecular target: T1, CCX CKR; test: Homologous competition binding of radiolabeled chemokine on HEK293-CCX CKR cells
Description: Furthermore ELC-SK mediated adhesion was abolished in the presence of soluble native ELC as a competitor (FIG. 3A, top row). […] Moreover, radiolabeled ELC was used in a traditional homologous competition assay in the presence of increasing concentrations of unlabeled ELC. […] Taken together, the stalkokine-based adhesion and radiolabeled ligand binding/homologous competition assays indicate that CCX CKR is a new chemokine receptor that bound a novel compliment of chemokines.

CCX CKR [6] = molecular target: T1, CCX CKR; test: Preliminary chemotaxis analysis of CCX CKR transfectants; assay type: cell-based; details: preliminary chemotaxis analyses, not shown
CCX CKR [7] = molecular target: T1, CCX CKR; test: Ligand induced internalization of CCX CKR in 293 F-CCR10 cells (FACS, anti-Flag); assay type: cell-based; details: 100 nM chemokine, 37° C., 15 or 45 minutes
Method: 293 cells transfected with the Flag-CCX CKR fusion plasmid (i.e., “293 F-CCR10 cells;” see Example 3) were incubated at 37° C. with varying concentrations of chemokines (ELC, SLC, TECK, murine CTACK and MCP4) for 15 or 45 minutes. Following incubation, the cells were washed and fixed with 3% paraformaldehyde for 15 minutes on ice. The cells were stained with anti-Flag M1 antibody, followed by a PE-conjugated anti-mouse secondary antibody. FACS analysis were then carried out to determine surface expression of the receptor.
Results: A reduction in antibody binding in the presence of ligand is an indication of ligand-induced internalization of the receptor.

Compound: CCC(c1nc2ccccc2c(=O)n1C)N(Cc1ccco1)C(=O)Nc1cccc(C(F)(F)F)c1 (centres unmarked) [Compound III]
Effect on binding between ELC and CCX CKR (CCX CKR [1]): enhance binding | Type of modulator of CCX CKR function (CCX CKR [1]): Com- pound III (agonist)

Compound: CC1CCCCN1CCCN(Cc1ccc(OCc2ccccc2)cc1)C(=O)NC12CCCC3CCC1CC2C3 (centres unmarked) [Compound II]
Effect on binding between ELC and CCX CKR (CCX CKR [1]): inhibit binding | Type of modulator of CCX CKR function (CCX CKR [1]): Com- pound II (antago- nist)

Compound: CC1CCCCN1CCCN(Cc1ccc(OCc2ccccc2)cc1)C(=O)Nc1ccc(Cl)c(Cl)c1 (centres unmarked) [Compound I]
Effect on binding between ELC and CCX CKR (CCX CKR [1]): inhibit binding | Type of modulator of CCX CKR function (CCX CKR [1]): Com- pound I (antago- nist)

Compound: ELC: EBII ligand chemokine, recombinant chemokine from R&D Systems
Effect of soluble chemokine on ELC-SK mediated adhesion of HEK293-CCX CKR cells (CCX CKR [4]): ablation of adhesion; also recorded: abolished | Binding of radiolabeled ELC, homologous competition with unlabeled ELC (CCX CKR [5]): significant binding | Binding to CCX CKR by displacement of 125I-labeled ELC (CCX CKR [2]): bound well | Affinity class of CCX CKR ligands (summary of Examples 4-6) (CCX CKR [3]): high affinity | Migration of CCX CKR transfectants in response to chemokine (CCX CKR [6]): moderate migration | Internalization of the receptor (CCX CKR [7]): Internalization of the receptor was observed

Continued, values first:

Binding to CCX CKR by displacement of 125I-labeled ELC (CCX CKR [2]): lower affinity | Affinity for CCX CKR in multipoint competition, in words (CCX CKR [3]; competition against 125I-ELC): of lesser affinity, also bound well | Affinity class of CCX CKR ligands (summary of Examples 4-6) (CCX CKR [3]): lower affinity
Compound: BLC: CXC chemokine BLC

Internalization of the receptor (CCX CKR [7]): did not cause internalization
Compound: MCP4: chemokine used as non-binding control in internalization assay

Effect of soluble chemokine on ELC-SK mediated adhesion of HEK293-CCX CKR cells (CCX CKR [4]): no diminution in adhesion and not
Compound: MCP-3: soluble chemokine, representative of non-competing chemokines
